Tests used:
light scattering = target: the molecule itself; assay: light scattering
[1] = target: T1, ParB (Caulobacter crescentus centromere-binding protein), immobilized for SPR (C. crescentus, UniProt B8GW30 1-304); assay: SPR
T1 sequence (looked up): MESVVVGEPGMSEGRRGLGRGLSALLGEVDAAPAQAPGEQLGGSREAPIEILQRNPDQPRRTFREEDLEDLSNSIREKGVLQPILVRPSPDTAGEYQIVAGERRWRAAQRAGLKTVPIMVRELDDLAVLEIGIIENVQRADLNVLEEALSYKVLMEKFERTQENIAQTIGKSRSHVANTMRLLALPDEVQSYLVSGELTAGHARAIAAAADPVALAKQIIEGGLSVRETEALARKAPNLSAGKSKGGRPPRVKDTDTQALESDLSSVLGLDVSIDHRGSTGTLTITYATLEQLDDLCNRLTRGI

[2] = target: T2, 6His–ParB (Caulobacter crescentus) (C. crescentus, UniProt B8GW30 1-304); assay: SPR
T2 sequence (looked up): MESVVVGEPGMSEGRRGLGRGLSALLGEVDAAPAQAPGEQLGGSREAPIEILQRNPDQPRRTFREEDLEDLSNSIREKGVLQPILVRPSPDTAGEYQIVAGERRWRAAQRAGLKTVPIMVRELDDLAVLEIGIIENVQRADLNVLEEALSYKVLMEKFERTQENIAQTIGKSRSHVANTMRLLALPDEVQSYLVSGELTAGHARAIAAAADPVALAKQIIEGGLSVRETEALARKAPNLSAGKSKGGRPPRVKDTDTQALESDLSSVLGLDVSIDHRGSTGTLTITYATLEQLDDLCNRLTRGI

Measured: binding result

B1: ParA (Caulobacter crescentus ATPase ParA), purified (enzyme, C. crescentus, UniProt B8GW31 1-267, looked up)
chain: MSANPLRVLAIANQKGGVGKTTTAINLGTALAACGERVLLIDADPQGNCSTGLGIGRTQRRTTLYDVLMGEAPVVDAAVKTELPGLDVIPADADLSGVEIELGQTARRSYRLRDALEAIRANGPYTYVLIDCPPSLNVLTVNAMTAADAVFVPLQCEFFALEGLTQLMRTIERVRGSLNPRLEIQGVVLTMYDRRNSLSEQVAKDVRAHFGDKVYDAVIPRNVRVSEAPSFGKPVLLYDLKCAGSQAYLKLAREVISRERDRQAKAA
binds: all assays above

— publication PMC3205914 (Nature cell biology, 2010)
